# From article PMC7293229
# What was measured:
# [1] = target: GxtA; assay: crystal structure; GxtA crystallised anaerobically, hanging drop, 0.3 M MgCl2, 0.1 M Bis-Tris pH 5.5, 25% PEG3350, 15% glycerol, 20 °C; without and with 20 mM ddSTX; three molecules in the asymmetric unit
# [2] = target: SxtT; assay: crystal structure; SxtT crystallised anaerobically, hanging drop, 2.0 M (NH4)2SO4, 0.1 M Bis-Tris pH 6.5, 10% glycerol, 20 °C; without and with 20 mM ddSTX; three molecules in the asymmetric unit
Substance,stoichiometry N [1],stoichiometry N [2]
GxtA (enzyme),3,–
SxtT (enzyme),–,3
